Reference: patent US9766245B2, “Method of detecting cancer based on glycan biomarkers” (California Institute of Technology, priority 2013, dated 2017)

How the values were obtained:
[1] = molecular target: T1, BgtA (Helicobacter mustelae, UniProt D3UIY4); test: Kinetic analysis of BgtA with UDP-GalNAz and UDP-GalNAc; format: biochemical; details: 100 μM acceptor 1
Method: (§1) Kinetic Analysis of BgtA with UDP-GalNAz and UDP-GalNAc.
(§2) Reactions were performed in duplicate with 100 μM acceptor substrate (1), 0.7 μg BgtA, and varying concentrations of UDP-GalNAz or UDP-GalNAc (50 to 800 μM) in 20 mM Tris-HCl pH 7.5, 50 mM NaCl, 10 mM MnCl2 at rt in a total volume of 20 μL. Product formation was monitored at 280 nm by reverse phase-HPLC (Agilent 1100), and time points were taken over the course of 5 min using a linear, 3-95% gradient of B (A: 0.1% aqueous trifluoroacetic acid B: 0.1% trifluoroacetic acid in MeCN) over 8 min with a flow rate of 1 mL/min. The kinetic parameters, apparent Km, Vmax, and kcat, were obtained by linear regression analysis of initial velocity vs. donor substrate concentration using KaleidaGraph (version 4.1.2).

[2] = molecular target: T1, BgtA; test: BgtA labeling of Galβ(1-4)GlcNAc-pNP in solution; format: biochemical; details: 2 h, 25° C.
[3] = molecular target: T1, BgtA; test: BgtA activity assay monitored by LC-MS/MS; format: biochemical; details: donor substrate, 12 h at 4° C.
Method: BgtA Activity Assay and Monitoring of Chemoenzymatic Labeling Reactions by LC-MS/MS.
The Fucα(1-2)Gal substrate 1 (10 μM) was dissolved in 20 mM Tris.HCl pH 7.5, 50 mM NaCl, and 5 mM MnCl2. BgtA enzyme (Yi, W.; Shen, J.; Zhou, G.; Li, J.; Wang, P. G. J. Am. Chem. Soc. 2008, 130, 14420.) and UDP-ketoGal 3 (Khidekel, N.; Arndt, S.; Lamarre-Vincent, N.; Lippert, A.; Poulin-Kerstien, K. G.; Ramakrishnan, B.; Qasba, P. K.; Hsieh-Wilson, L. C. J. Am. Chem. Soc. 2003, 125, 16162.) or UDP-GalNAz 2 (Invitrogen) were added to final concentrations of 0.16 mg/mL and 50 μM, respectively, in a final volume of 100 μL. The reaction was incubated at 4° C. in the dark for 12-16 h, and the reaction progress was monitored by LC-MS/MS. To label with aminooxy-biotin 7, the reactions were diluted 5-fold with saturated urea, 2.7 M NaOAc pH 3.9 (50 mM final concentration and pH 4.8), and 7 (5 mM final concentration, Dojindo) and incubated for 20-24 h at rt. To label with ADIBO-biotin 6, 250 μM of 6 (Click Chemistry Tools) was added, and the reaction was incubated for 3 h at rt. […]

[4] = molecular target: T1, BgtA; test: Chemoenzymatic labeling of cell lysates, streptavidin capture and Western blotting; format: biochemical; details: rat brain (olfactory bulb) lysates, BgtA + UDP-GalNAz, alkyne-biotin 11, streptavidin capture, immunoblot; in the presence but not absence of BgtA
[5] = molecular target: T1, BgtA; test: Chemoenzymatic labeling on the glycan array; format: biochemical; details: 0.5, 2 and 12 h, rt; ADIBO-biotin, Cy5-streptavidin; labeled if 12 h signal minus background >1000 relative fluorescence units
Method: Chemoenzymatic Labeling on the Glycan Array.
Glycan Array version 5.0 was provided by the Consortium for Functional Glycomics (CFG). Pre-equilibrated arrays were treated with BgtA enzyme (0.16 mg/mL) and 500 μM UDP-GalNAz 2 in 20 mM Tris.HCl pH 7.4, 50 mM NaCl, 2 mM MnCl2 containing 1% bovine serum albumin (BSA) for various times (0, 0.5, 2, and 12 h) at rt, washed 4 times with wash buffer (20 mM Tris.HCl pH 7.4, 50 mM NaCl, 0.1% Triton X-100) and then 4 times with rinse buffer (20 mM Tris.HCl pH 7.4, 50 mM NaCl). The arrays were then incubated with ADIBO-biotin (5 μM) in 20 mM Tris.HCl pH 7.4, 50 mM NaCl for 2 h at rt. […] The arrays were then washed 4 times with wash buffer (containing 0.05% Tween-20 instead of 0.1% Triton X-100), 4 times with rinse buffer, 4 times with water, dried under a low stream of filtered air, and scanned using a PerkinElmer ScanArray Express fluorescence scanner and ImaGene data analysis software (BioDiscovery). Data were analyzed per the guidelines of the CFG. […] Because background fluorescence can be heterogeneous across the array, each array was divided into areas of 10 by 10 spots, or sub-arrays, and a background fluorescence value was calculated within each sub-array by the software. This value was then subtracted from the fluorescence signal for each glycan spot within the sub-array by the software. […]

[6] = test system: CC(=O)N[C@H]1[C@@H](OP(=O)(O)OP(=O)(O)OC[C@H]2O[C@@H](n3ccc(=O)[nH]c3=O)[C@H](O)[C@@H]2O)O[C@H](CO)[C@H](O)[C@@H]1O; test: Kinetic analysis of BgtA with UDP-GalNAz and UDP-GalNAc; format: biochemical, Helicobacter mustelae; details: other: donor substrate, 100 μM acceptor 1, donor 50 to 800 μM, rt; pH 7.5
Method: as §1, §2

[7] = test system: [N-]=[N+]=NCC(=O)N[C@H]1[C@@H](OP(=O)(O)OP(=O)(O)OC[C@H]2O[C@@H](n3ccc(=O)[nH]c3=O)[C@H](O)[C@@H]2O)O[C@H](CO)[C@H](O)[C@@H]1O; test: as above; format: biochemical, Helicobacter mustelae; details: other: donor substrate, 100 μM acceptor 1, donor 50 to 800 μM, rt; pH 7.5
Method: as §1, §2

For `CC(=O)N[C@H]1[C@@H](OP(=O)(O)OP(=O)(O)OC[C@H]2O[C@@H](n3ccc(=O)[nH]c3=O)[C@H](O)[C@@H]2O)O[C@H](CO)[C@H](O)[C@@H]1O` [UDP-GalNAc], which “Vmax fold higher than that of UDP-GalNAz” value [1] is on record?
The value was “approximately 5 fold”.

`CC(=O)N[C@H]1[C@H](Oc2ccc([N+](=O)[O-])cc2)O[C@H](CO)[C@@H](O[C@@H]2O[C@H](CO)[C@H](O)[C@H](O)[C@H]2O)[C@@H]1O` [Galβ(1-4)GlcNAc-pNP, p-nitrophenyl 2-acetamido-2-deoxy-4-O-(β-D-galactopyranosyl)-β-D-glucopyranoside] was tested. Which “labeling by BgtA in solution” value [2] did it give?
Its value is “failed to label”.

How did the “kcat/Km fold lower than natural UDP-GalNAc substrate” value [1] turn out when `[N-]=[N+]=NCC(=O)N[C@H]1[C@@H](OP(=O)(O)OP(=O)(O)OC[C@H]2O[C@@H](n3ccc(=O)[nH]c3=O)[C@H](O)[C@@H]2O)O[C@H](CO)[C@H](O)[C@@H]1O` [UDP-GalNAz, UDP-N-azidoacetylgalactosamine] was run?
The value was “approximately 7 fold”.

And the “conversion of substrate 1 to the desired product with BgtA” value [3]?
The value was “complete conversion”.

“synapsin I: known Fucα(1-2)Gal glycoprotein in rat brain lysate” was tested. Which “chemoenzymatic labeling and detection of glycoprotein” value (from here on “chemoenzymatic labeling and detection”) [4] did it give?
Its value is “chemoenzymatically labeled and detected”.

How did the “labeling of glycan by BgtA and UDP-GalNAz on microarray” value [5] turn out when `CC(=O)N[C@@H]1[C@@H](O[C@@H]2O[C@H](CO)[C@H](O)[C@H](O)[C@H]2O[C@@H]2O[C@@H](C)[C@@H](O)[C@@H](O)[C@@H]2O)[C@H](O[C@@H]2O[C@@H](C)[C@@H](O)[C@@H](O)[C@@H]2O)[C@@H](CO)O[C@H]1O` [Glycan 61] was run?
Its value is “weak labeling”.

“UDP-2-deoxy-2-(acetonyl)-β-D-galactopyranoside [UDP-ketoGal]” was tested. Which “conversion of substrate 1 to the desired product with BgtA” value [3] did it give?
The value was “complete conversion”.

How did the Km [6] turn out when BgtA (Helicobacter mustelae 12198) was run?
Its Km is 127 ± 36 µM.

What about the Vmax [6] of the same molecule?
The Vmax was 0.100 ± 0.010 nmol/min.

What about the Km [7] of the same molecule?
Its Km is 168 ± 55 µM.

And the Vmax [7]?
The Vmax was 0.020 ± 0.002 nmol/min.

B1: NCAM: known Fucα(1-2)Gal glycoprotein in rat brain lysate (protein, UniProt P13596 20-858, looked up)
Neural cell adhesion molecule …: LQVDIVPSQGEISVGESKFFLCQVAGDAKDKDISWFSPNGEKLSPNQQRISVVWNDDDSSTLTIYNANIDDAGIYKCVVTAEDGTQSEATVNVKIFQKLMFKNAPTPQEFKEGEDAVIVCDVVSSLPPTIIWKHKGRDVILKKDVRFIVLSNNYLQIRGIKKTDEGTYRCEGRILARGEINFKDIQVIVNVPPTVQARQSIVNATANLGQSVTLVCDADGFPEPTMSWTKDGEPIENEEEDDEKHIFSDDSSELTIRNVDKNDEAEYVCIAENKAGEQDASIHLKVFAKPKITYVENQTAMELEEQVTLTCEASGDPIPSITWRTSTRNISSEEKASWTRPEKQETLDGHMVVRSHARVSSLTLKSIQYTDAGEYICTASNTIGQDSQSMYLEVQYAPKLQGPVAVYTWEGNQVNITCEVFAYPSATISWFRDGQLLPSSNYSNIKIYNTPSASYLEVTPDSENDFGNYNCTAVNRIGQESLEFILVQADTPSSPSIDRVEPYSSTAQVQFDEPEATGGVPILKYKAEWKSLGEEAWHSKWYDAKEANMEGIVTIMGLKPETRYAVRLAALNGKGLGEISAATEFKTQPVREPSAPKLEGQMGEDGNSIKVNLIKQDDGGSPIRHYLVKYRALASEWKPEIRLPSGSDHVMLKSLDWNAEYEVYVVAENQQGKSKAAHFVFRTSAQPTAIPANGSPTAGLSTGAIVGILIVIFVLLLVVMDITCYFLNKCGLLMCIAVNLCGKAGPGAKGKDMEEGKAAFSKDESKEPIVEVRTEEERTPNHDGGKHTEPNETTPLTEPEKGPVETKSEPQESEAKPAPTEVKTVPNEATQTKENESKA
B1 was tested. Which “chemoenzymatic labeling and detection” value [4] did it give?
Its value is “chemoenzymatically labeled and detected”.

B2: p44 MAPK: a protein that has not been shown to be fucosylated (protein, UniProt P21708 2-380, looked up)
Mitogen-activated protein …: AAAAAAPGGGGGEPRGTAGVVPVVPGEVEVVKGQPFDVGPRYTQLQYIGEGAYGMVSSAYDHVRKTRVAIKKISPFEHQTYCQRTLREIQILLRFRHENVIGIRDILRAPTLEAMRDVYIVQDLMETDLYKLLKSQQLSNDHICYFLYQILRGLKYIHSANVLHRDLKPSNLLINTTCDLKICDFGLARIADPEHDHTGFLTEYVATRWYRAPEIMLNSKGYTKSIDIWSVGCILAEMLSNRPIFPGKHYLDQLNHILGILGSPSQEDLNCIINMKARNYLQSLPSKTKVAWAKLFPKSDSKALDLLDRMLTFNPNKRITVEEALAHPYLEQYYDPTDEPVAEEPFTFDMELDDLPKERLKELIFQETARFQPGAPEAP
How did the “chemoenzymatic labeling and detection” value [4] turn out when B2 was run?
Its value is “not detected”.
